Experimental data published in publication doi:10.1101/839423, “Mechanism of the secretion of the lanthipeptide nisin” (bioRxiv, 2019).

T1: NisB, nisin dehydratase (Lactococcus lactis, UniProt P20103 1-993)
T1 construct: Nisin biosynthesis protein NisB (dehydratase), Lactococcus lactis; printed as about 117 kDa; source: expressed and purified as described previously (Mavaro 2011; Abts 2013; Reiners 2017)
T1 sequence (looked up): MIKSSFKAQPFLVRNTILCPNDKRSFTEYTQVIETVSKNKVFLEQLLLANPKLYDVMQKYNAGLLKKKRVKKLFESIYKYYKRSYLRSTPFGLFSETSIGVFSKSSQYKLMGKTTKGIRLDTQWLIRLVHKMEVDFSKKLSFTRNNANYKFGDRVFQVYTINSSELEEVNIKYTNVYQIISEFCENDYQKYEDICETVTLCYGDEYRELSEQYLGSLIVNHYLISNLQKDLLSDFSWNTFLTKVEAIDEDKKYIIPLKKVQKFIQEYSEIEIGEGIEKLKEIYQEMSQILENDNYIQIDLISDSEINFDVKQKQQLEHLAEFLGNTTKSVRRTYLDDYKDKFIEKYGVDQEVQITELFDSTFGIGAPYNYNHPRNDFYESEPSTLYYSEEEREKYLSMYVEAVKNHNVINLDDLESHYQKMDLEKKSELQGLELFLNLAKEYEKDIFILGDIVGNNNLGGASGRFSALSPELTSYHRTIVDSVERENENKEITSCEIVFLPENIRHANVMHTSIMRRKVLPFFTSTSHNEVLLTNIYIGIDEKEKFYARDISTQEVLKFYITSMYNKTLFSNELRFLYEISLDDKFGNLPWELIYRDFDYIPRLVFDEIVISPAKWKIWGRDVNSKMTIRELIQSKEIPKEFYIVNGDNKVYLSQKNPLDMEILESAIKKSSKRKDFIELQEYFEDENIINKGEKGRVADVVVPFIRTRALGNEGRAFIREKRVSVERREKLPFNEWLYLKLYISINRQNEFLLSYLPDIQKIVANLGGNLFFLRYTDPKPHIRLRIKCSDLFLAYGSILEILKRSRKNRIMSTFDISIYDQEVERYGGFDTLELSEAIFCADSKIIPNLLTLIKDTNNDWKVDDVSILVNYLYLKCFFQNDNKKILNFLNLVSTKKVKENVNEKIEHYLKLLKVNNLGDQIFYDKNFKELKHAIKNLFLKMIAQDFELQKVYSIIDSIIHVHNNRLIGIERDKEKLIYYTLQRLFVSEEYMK

B1: NisC, nisin cyclase (enzyme, Lactococcus lactis, UniProt Q03202 1-418, looked up)
chain: MRIMMNKKNIKRNVEKIIAQWDERTRKNKENFDFGELTLSTGLPGIILMLAELKNKDNSKIYQKKIDNYIEYIVSKLSTYGLLTGSLYSGAAGIALSILHLREDDEKYKNLLDSLNRYIEYFVREKIEGFNLENITPPDYDVIEGLSGILSYLLLINDEQYDDLKILIINFLSNLTKENNGLISLYIKSENQMSQSESEMYPLGCLNMGLAHGLAGVGCILAYAHIKGYSNEASLSALQKIIFIYEKFELERKKQFLWKDGLVADELKKEKVIREASFIRDAWCYGGPGISLLYLYGGLALDNDYFVDKAEKILESAMQRKLGIDSYMICHGYSGLIEICSLFKRLLNTKKFDSYMEEFNVNSEQILEEYGDESGTGFLEGISGCILVLSKFEYSINFTYWRQALLLFDDFLKGGKRK
notes: Nisin biosynthesis protein NisC (cyclase), Lactococcus lactis; printed as about 48 kDa; source: expressed and purified as described previously (Mavaro 2011; Abts 2013; Reiners 2017)
B2: 10HNisT, deca-histidine tagged ABC transporter NisT (natural protein, Lactococcus lactis, UniProt Q03203 1-600, looked up)
chain: MDEVKEFTSKQFFYTLLTLPSTLKLIFQLEKRYAIYLIVLNAITAFVPLASLFIYQDLINSVLGSGRHLINIIIIYFIVQVITTVLGQLESYVSGKFDMRLSYSINMRLMRTTSSLELSDYEQADMYNIIEKVTQDSTYKPFQLFNAIIVELSSFISLLSSLFFIGTWNIGVAILLLIVPVLSLVLFLRVGQLEFLIQWQRASSERETWYIVYLLTHDFSFKEIKLNNISNYFIHKFGKLKKGFINQDLAIARKKTYFNIFLDFILNLINILTIFAMILSVRAGKLLIGNLVSLIQAISKINTYSQTMIQNIYIIYNTSLFMEQLFEFLKRESVVHKKIEDTEICNQHIGTVKVINLSYVYPNSNAFALKNINLSFEKGELTAIVGKNGSGKSTLVKIISGLYQPTMGIIQYDKMRSSLMPEEFYQKNISVLFQDFVKYELTIRENIGLSDLSSQWEDEKIIKVLDNLGLDFLKTNNQYVLDTQLGNWFQEGHQLSGGQWQKIALARTFFKKASIYILDEPSAALDPVAEKEIFDYFVALSENNISIFISHSLNAARKANKIVVMKDGQVEDVGSHDVLLRRCQYYQELYYSEQYEDNDE
notes: the nisT gene was amplified from genomic DNA of L. lactis NZ97000; 10HNisT is printed as 72.5 kDa (72.6 kDa in the methods), NisT as about 69 kDa; In the pull-down the detergent was CYMAL5; also called WT; source: L. lactis NZ9000 (pNZ-SV10HnisT), membranes solubilised with Fos-choline-16, purified (IMAC, SEC)

Legend:
[1] = target: B2; assay: pull-down; as a1, with NisB and NisC together (1:1), pre-incubated 15 min on ice with mNisA (20x molar excess to NisT); conditions: both partners purified
NisB, nisin dehydratase = target: T1, NisB, nisin dehydratase; assay: pull-down; about 15 ug 10HNisT immobilised on Ni-NTA magnetic beads; 10 uM NisB, NisC or both, no substrate; 1 h at 30 C; 25 mM Tris-HCl pH 7.5, 50 mM KCl, 0.4% CYMAL5, 400 mM glutamate, 5 mM MgATP; six washes, elution with 50 mM EDTA, Western blot; conditions: both partners purified

binding result [1]	binding result (NisB, nisin dehydratase)	Binder
binds		B1
	binds	B2
